Laboratory results reported in PMC11574045, “A cofactor-induced repressive type of transcription factor condensation can be induced by synthetic peptides to suppress tumorigenesis” (The EMBO Journal, 2024).

System: HEK293FT cells transfected with TF library
Assay: Screening of TF condensates based on fluorescent puncta
Assay type: cell-based
Conditions: Figure 1B numerical data; TF library screen, one value per transcriptional factor
Outline: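 Cells were seeded onto plasmid/PEI-loaded wells (plasmid 1.6 μg/ml final) and grown 60 h. Medium with or without glucose followed for 12 h. Fixed, permeabilized cells were stained against Flag or GAL4 tags, and condensate puncta were quantified from 50 random fields per well.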

B1: PQBP1 (protein, UniProt O60828 2-265, looked up)
Polyglutamine-binding protein …: PLPVALQTRLAKRGILKHLEPEPEEEIIAEDYDDDPVDYEATRLEGLPPSWYKVFDPSCGLPYYWNADTDLVSWLSPHDPNSVVTKSAKKLRSSNADAEEKLDRSHDKSDRGHDKSDRSHEKLDRGHDKSDRGHDKSDRDRERGYDKVDRERERDRERDRDRGYDKADREEGKERRHHRREELAPYPKSKKAVSRKDEELDPMDPSSYSDAPRGTWSTGLPKRNEAKTGADTTAAGPLFQQRPYPSPGAVLRANAEASRTKQQD
- Z score of condensed fraction: -0.5347

B2: PRDM10 (protein, UniProt Q9NQV6 1-1147, looked up)
PR domain zinc finger protein …: MDSKDESSHVWPTSAEHEQNAAQVHFVPDTGTVAQIVYTDDQVRPPQQVVYTADGASYTSVDGPEHTLVYIHPVEAAQTLFTDPGQVAYVQQDATAQQASLPVHNQVLPSIESVDGSDPLATLQTPLGRLEAKEEEDEDEDEDTEEDEEEDGEDTDLDDWEPDPPRPFDPHDLWCEECNNAHASVCPKHGPLHPIPNRPVLTRARASLPLVLYIDRFLGGVFSKRRIPKRTQFGPVEGPLVRGSELKDCYIHLKVSLDKGDRKERDLHEDLWFELSDETLCNWMMFVRPAQNHLEQNLVAYQYGHHVYYTTIKNVEPKQELKVWYAASYAEFVNQKIHDISEEERKVLREQEKNWPCYECNRRFISSEQLQQHLNSHDEKLDVFSRTRGRGRGRGKRRFGPGRRPGRPPKFIRLEITSENGEKSDDGTQDLLHFPTKEQFDEAEPATLNGLDQPEQTTIPIPQLPQETQSSLEHEPETHTLHLQPQHEESVVPTQSTLTADDMRRAKRIRLELQNAALQHLFIRKSFRPFKCLQCGKAFREKDKLDQHLRFHGREGNCPLTCDLCNKGFISSTSLESHMKLHSDQKTYSCIFCPESFDRLDLLKDHVAIHINDGYFTCPTCKKRFPDFIQVKKHVRSFHSEKIYQCTECDKAFCRPDKLRLHMLRHSDRKDFLCSTCGKQFKRKDKLREHMQRMHNPEREAKKADRISRSKTFKPRITSTDYDSFTFKCRLCMMGFRRRGMLVNHLSKRHPDMKIEEVPELTLPIIKPNRDYFCQYCDKVYKSASKRKAHILKNHPGAELPPSIRKLRPAGPGEPDPMLSTHTQLTGTIATPPVCCPHCSKQYSSKTKMVQHIRKKHPEFAQLSNTIHTPLTTAVISATPAVLTTDSATGETVVTTDLLTQAMTELSQTLTTDYRTPQGDYQRIQYIPVSQSASGLQQPQHIQLQVVQVASATSPHQSQQSTVDVGQLHDPQPYPQHAIQVQHIQVSGQPLSPSAQQAQQGLSPSHIQGSSSTQGQALQQQQQQQQNSSVQHTYLPSAWNSFRGYSSEIQMMTLPPGQFVITDSGVATPVTTGQVKAVTSGHYVLSESQSELEEKQTSALSGGVQVEPPAHSDSLDPQTNSQQQTTQYIITTTTNGNGSSEVHITKP
- Z score of condensed fraction: 0.3409

B3: PRDM12 (protein, UniProt Q9H4Q4 1-367, looked up)
PR domain zinc finger protein …: MMGSVLPAEALVLKTGLKAPGLALAEVITSDILHSFLYGRWRNVLGEQLFEDKSHHASPKTAFTAEVLAQSFSGEVQKLSSLVLPAEVIIAQSSIPGEGLGIFSKTWIKAGTEMGPFTGRVIAPEHVDICKNNNLMWEVFNEDGTVRYFIDASQEDHRSWMTYIKCARNEQEQNLEVVQIGTSIFYKAIEMIPPDQELLVWYGNSHNTFLGIPGVPGLEEDQKKNKHEDFHPADSAAGPAGRMRCVICHRGFNSRSNLRSHMRIHTLDKPFVCRFCNRRFSQSSTLRNHVRLHTGERPYKCQVCQSAYSQLAGLRAHQKSARHRPPSTALQAHSPALPAPHAHAPALAAAAAAAAAAAAHHLPAMVL
- Z score of condensed fraction: -1.027

B4: POU4F1 (protein, UniProt Q01851 1-419, looked up)
POU domain, class 4, …: MMSMNSKQPHFAMHPTLPEHKYPSLHSSSEAIRRACLPTPPLQSNLFASLDETLLARAEALAAVDIAVSQGKSHPFKPDATYHTMNSVPCTSTSTVPLAHHHHHHHHHQALEPGDLLDHISSPSLALMAGAGGAGAAAGGGGAHDGPGGGGGPGGGGGPGGGPGGGGGGGPGGGGGGPGGGLLGGSAHPHPHMHSLGHLSHPAAAAAMNMPSGLPHPGLVAAAAHHGAAAAAAAAAAGQVAAASAAAAVVGAAGLASICDSDTDPRELEAFAERFKQRRIKLGVTQADVGSALANLKIPGVGSLSQSTICRFESLTLSHNNMIALKPILQAWLEEAEGAQREKMNKPELFNGGEKKRKRTSIAAPEKRSLEAYFAVQPRPSSEKIAAIAEKLDLKKNVVRVWFCNQRQKQKRMKFSATY
- Z score of condensed fraction: -0.7489

B5: POU3F4 (protein, UniProt P49335 1-361, looked up)
POU domain, class 3, …: MATAASNPYSILSSTSLVHADSAGMQQGSPFRNPQKLLQSDYLQGVPSNGHPLGHHWVTSLSDGGPWSSTLATSPLDQQDVKPGREDLQLGAIIHHRSPHVAHHSPHTNHPNAWGASPAPNPSITSSGQPLNVYSQPGFTVSGMLEHGGLTPPPAAASAQSLHPVLREPPDHGELGSHHCQDHSDEETPTSDELEQFAKQFKQRRIKLGFTQADVGLALGTLYGNVFSQTTICRFEGLQLSFKNMCKLKPLLNKWLEEADSSTGSPTSIDKIAAQGRKRKKRTSIEVSVKGVLETHFLKCPKPAAQEISSLADSLQLEKEVVRVWFCNRRQKEKRMTPPGDQQPHEVYSHTVKTDTSCHDL
- Z score of condensed fraction: -0.484

B6: PPARD (protein, UniProt Q03181 1-441, looked up)
Peroxisome …: MEQPQEEAPEVREEEEKEEVAEAEGAPELNGGPQHALPSSSYTDLSRSSSPPSLLDQLQMGCDGASCGSLNMECRVCGDKASGFHYGVHACEGCKGFFRRTIRMKLEYEKCERSCKIQKKNRNKCQYCRFQKCLALGMSHNAIRFGRMPEAEKRKLVAGLTANEGSQYNPQVADLKAFSKHIYNAYLKNFNMTKKKARSILTGKASHTAPFVIHDIETLWQAEKGLVWKQLVNGLPPYKEISVHVFYRCQCTTVETVRELTEFAKSIPSFSSLFLNDQVTLLKYGVHEAIFAMLASIVNKDGLLVANGSGFVTREFLRSLRKPFSDIIEPKFEFAVKFNALELDDSDLALFIAAIILCGDRPGLMNVPRVEAIQDTILRALEFHLQANHPDAQYLFPKLLQKMADLRQLVTEHAQMMQRIKKTETETSLHPLLQEIYKDMY
- Z score of condensed fraction: -0.9649

B7: POU5F2 (protein, UniProt Q8N7G0 1-328, looked up)
POU domain, class 5, …: MAGHRPSNHFCPLPGSGGGGPRGPMPLRVDTLTWLSTQAAPGRVMVWPAVRPGICPGPDVWRIPLGPLPHEFRGWIAPCRPRLGASEAGDWLRRPSEGALPGPYIALRSIPKLPPPEDISGILKELQQLAKELRQKRLSLGYSQADVGIAVGALFGKVLSQTTICRFEAQQLSVANMWKLRPLLKKWLKEVEAENLLGLCKMEMILQQSGKWRRASRERRIGNSLEKFFQRCPKPTPQQISHIAGCLQLQKDVVRVWFYNRSKMGSRPTNDASPREIVGTAGPPCPGAPVCFHLGLGLPVDIPHYTRLYSAGVAHSSAPATTLGLLRF
- Z score of condensed fraction: 1.226
